According to patent US20230090502:

Assays:
[1] = tested on: T1, Biosyn#1 (cov19) Dabcyl-TSAVLQSGFRK-EDANS
T1 sequence: TSAVLQSGFRK

[2] = tested on: T2, Biosyn#6 (229e) Dabcyl-YGSTLQAGLRK-EDANS
T2 sequence: YGSTLQAGLRK

[3] = tested on: Biosyn#7 (HRV) Dabcyl-LEALFQGP[Asp-(EDANS) SQ [Amide]

With Human Rhinovirus (HRV) 3C protease the % Enz activity was 1%, the Enzymatic activity, Slope; 5 uM substrate, 150 ng/reaction enzyme was 87 RFU/min and the “enzymatic activity, in words” value was “Complete specificity (no cross reactivity) was observed for the most abundant common cold virus, HRV”. The % Enz activity [1] was -1%, the Enzymatic activity, Slope; 5 uM substrate, 150 ng/reaction enzyme [1] was -12 RFU/min and the “enzymatic activity, in words” value [1] was “Complete specificity (no cross reactivity) was observed for the most abundant common cold virus, HRV”. For the same substance, the % Enz activity [2] was -7%, the Enzymatic activity, Slope; 5 uM substrate, 150 ng/reaction enzyme [2] was 44 RFU/min and the “enzymatic activity, in words” value [2] was “Complete specificity (no cross reactivity) was observed for the most abundant common cold virus, HRV”. For the same substance, the % Enz activity [3] was 100%, the Enzymatic activity, Slope; 5 uM substrate, 150 ng/reaction enzyme [3] was 1040 RFU/min and the “enzymatic activity, in words” value [3] was “The Biosyn #7 substrate was specific for HRV”.
